Measurements from US20220010021A1 (Sanofi, published 2022).
Residue numbers refer to the chain shown, from its start.

Legend:
[1] = biological target: T1, beta-Klotho (KLB) (Homo sapiens (Human), UniProt Q86Z14 1-996); assay: BLI (Octet) off-rate screening, mAb from supernatant on anti-hIgG Fc sensor, 5 nmol/L KLB;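 note: dissociation followed for 1800 s in D-PBS plus 0.1% BSA, antibody supernatants applied at 25 µg/mL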
T1 construct: also called β-Klotho; not shown: C-terminal His tag of the bought R&D Systems protein
T1 sequence: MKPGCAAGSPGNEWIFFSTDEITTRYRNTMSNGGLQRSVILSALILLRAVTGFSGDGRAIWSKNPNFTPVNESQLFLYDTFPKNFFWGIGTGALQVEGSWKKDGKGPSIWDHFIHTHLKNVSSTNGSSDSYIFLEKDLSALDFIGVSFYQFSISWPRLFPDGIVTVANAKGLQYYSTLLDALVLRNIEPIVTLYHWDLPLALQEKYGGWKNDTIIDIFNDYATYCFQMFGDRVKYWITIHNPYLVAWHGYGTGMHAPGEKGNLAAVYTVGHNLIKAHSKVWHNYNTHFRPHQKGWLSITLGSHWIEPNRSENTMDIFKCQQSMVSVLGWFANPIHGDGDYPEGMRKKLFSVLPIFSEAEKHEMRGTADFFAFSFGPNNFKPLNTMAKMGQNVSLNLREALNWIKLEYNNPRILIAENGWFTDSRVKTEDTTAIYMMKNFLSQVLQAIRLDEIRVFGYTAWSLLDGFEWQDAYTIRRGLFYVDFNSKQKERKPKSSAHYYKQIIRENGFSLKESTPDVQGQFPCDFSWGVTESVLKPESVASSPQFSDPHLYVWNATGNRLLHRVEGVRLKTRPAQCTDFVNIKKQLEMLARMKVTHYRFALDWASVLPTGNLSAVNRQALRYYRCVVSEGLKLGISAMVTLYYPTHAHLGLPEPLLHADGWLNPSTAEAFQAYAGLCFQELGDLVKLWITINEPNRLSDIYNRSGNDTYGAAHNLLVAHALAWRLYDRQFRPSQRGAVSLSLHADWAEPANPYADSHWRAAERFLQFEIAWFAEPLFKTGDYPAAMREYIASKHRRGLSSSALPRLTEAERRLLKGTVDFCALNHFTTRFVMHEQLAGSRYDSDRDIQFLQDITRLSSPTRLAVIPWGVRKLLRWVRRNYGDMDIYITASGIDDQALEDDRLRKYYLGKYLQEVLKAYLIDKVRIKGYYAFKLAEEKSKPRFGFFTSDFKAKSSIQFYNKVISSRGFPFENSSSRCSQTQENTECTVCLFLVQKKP

[2] = biological target: cell surface receptor composed of the tyrosine kinase receptor FGFR1c and co-receptor beta-Klotho (KLB) (human, UniProt P11362 22-822; Q86Z14 1-1044); assay: cell-based or functional assay
Chain of cell surface receptor composed of the tyrosine kinase receptor FGFR1c and co-receptor beta-Klotho (KLB) (P11362 22-822, one chain of several): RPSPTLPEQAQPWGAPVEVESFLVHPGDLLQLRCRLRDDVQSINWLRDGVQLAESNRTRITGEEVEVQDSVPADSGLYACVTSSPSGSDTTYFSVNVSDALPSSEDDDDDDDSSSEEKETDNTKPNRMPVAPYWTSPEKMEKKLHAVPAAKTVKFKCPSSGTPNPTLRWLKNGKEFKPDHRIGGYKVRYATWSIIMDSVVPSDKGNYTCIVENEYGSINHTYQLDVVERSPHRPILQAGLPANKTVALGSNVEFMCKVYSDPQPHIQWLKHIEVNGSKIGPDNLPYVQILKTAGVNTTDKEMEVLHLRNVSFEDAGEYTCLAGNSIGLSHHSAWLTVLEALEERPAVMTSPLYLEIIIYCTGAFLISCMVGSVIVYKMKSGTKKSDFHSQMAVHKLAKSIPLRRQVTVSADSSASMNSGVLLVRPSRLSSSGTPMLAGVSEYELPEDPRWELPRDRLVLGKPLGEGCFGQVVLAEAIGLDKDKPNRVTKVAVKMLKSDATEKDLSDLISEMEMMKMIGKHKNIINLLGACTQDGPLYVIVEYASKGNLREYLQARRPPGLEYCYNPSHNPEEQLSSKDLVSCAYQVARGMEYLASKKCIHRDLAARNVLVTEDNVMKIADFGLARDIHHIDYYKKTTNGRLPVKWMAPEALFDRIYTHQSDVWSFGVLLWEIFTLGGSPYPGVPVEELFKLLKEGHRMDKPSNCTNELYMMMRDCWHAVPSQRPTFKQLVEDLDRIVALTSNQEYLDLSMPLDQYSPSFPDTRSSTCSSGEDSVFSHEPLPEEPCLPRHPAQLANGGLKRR

B1: 16H7 variant with light chain substitution N93R (antibody, human IgG4 S228P, lambda, V domains shown)
VH: not shown
VL: SYVLTQPPSVSVAPGQTARITCGGNNIGSESVHWYQQKPGQAPVLVVYDDSDRPSGIPERFSGSNSGNTATLTISRVEAGDEADYYCQVWDGRSDHVVFGGGTKLTVLG
notes: IgG4 backbone was used
In the case of B1, the koff [1] is reported as 5e-05 s⁻¹, the “Mean E max, Luciferase gene reporter assay” value (from here on “Mean E max”) [2] is reported as 100% and the “Mean EC50, Luciferase gene reporter assay” value (“Mean EC50” for short) [2] is reported as 0.186 nM.

B2: 16H7 variant with light chain substitution S94T (antibody, human IgG4 S228P, lambda, V domains shown)
VH: not shown
VL: B1 VL with R93N, S94T
notes: IgG4 backbone was used
In the case of B2, the koff [1] is reported as 3.2e-05 s⁻¹, the “Mean E max” value [2] is reported as 109% and the “Mean EC50” value [2] is reported as 0.116 nM.

B3: 16H7 variant with light chain substitution S94V (antibody, human IgG4 S228P, lambda, V domains shown)
VH: not shown
VL: B1 VL with R93N, S94V
notes: IgG4 backbone was used
B3 was tested, and the koff [1] was 2.8e-05 s⁻¹, the “Mean E max” value [2] was 108% and the “Mean EC50” value [2] was 0.119 nM.

B4: 16H7 variant with light chain substitution V97L (antibody, human IgG4 S228P, lambda, V domains shown)
VH: not shown
VL: B1 VL with R93N, V97L
notes: IgG4 backbone was used
With B4 the koff [1] was 5.9e-05 s⁻¹, the “Mean E max” value [2] was 110% and the “Mean EC50” value [2] was 0.129 nM.

B5: 16H7 variant with light chain substitution V98I (antibody, human IgG4 S228P, lambda, V domains shown)
VH: not shown
VL: B1 VL with R93N, V98I
notes: IgG4 backbone was used
In the case of B5, the koff [1] is reported as 3.3e-05 s⁻¹, the “Mean E max” value [2] is reported as 116% and the “Mean EC50” value [2] is reported as 0.105 nM.

B6: 16H7 variant with light chain substitution V97I (antibody, human IgG4 S228P, lambda, V domains shown)
VH: not shown
VL: B1 VL with R93N, V97I
notes: IgG4 backbone was used
B6 was tested, and the koff [1] was 1.7e-05 s⁻¹, the “Mean E max” value [2] was 110% and the “Mean EC50” value [2] was 0.12 nM.

B7: 16H7 variant with light chain substitution V98Q (antibody, human IgG4 S228P, lambda, V domains shown)
VH: not shown
VL: B1 VL with R93N, V98Q
notes: IgG4 backbone was used
B7 was tested, and the koff [1] was 3.7e-05 s⁻¹, the “Mean E max” value [2] was 111% and the “Mean EC50” value [2] was 0.121 nM.

B8: 16H7 variant with light chain substitution V98P (antibody, human IgG4 S228P, lambda, V domains shown)
VH: not shown
VL: B1 VL with R93N, V98P
notes: IgG4 backbone was used
For B8, the koff [1] was 7.3e-05 s⁻¹, the “Mean E max” value [2] was 89% and the “Mean EC50” value [2] was 0.131 nM.

B9: 16H7 variant with light chain substitution N93S (antibody, human IgG4 S228P, lambda, V domains shown)
VH: not shown
VL: B1 VL with R93S
notes: IgG4 backbone was used
For B9, the koff [1] was 3.4e-05 s⁻¹, the “Mean E max” value [2] was 101% and the “Mean EC50” value [2] was 0.105 nM.

B10: 16H7 variant with light chain substitution S94M (antibody, human IgG4 S228P, lambda, V domains shown)
VH: not shown
VL: B1 VL with R93N, S94M
notes: IgG4 backbone was used
With B10 the koff [1] was 1.2e-05 s⁻¹, the “Mean E max” value [2] was 101% and the “Mean EC50” value [2] was 0.117 nM.

B11: 16H7 variant with light chain substitution V98N (antibody, human IgG4 S228P, lambda, V domains shown)
VH: not shown
VL: B1 VL with R93N, V98N
notes: IgG4 backbone was used
In the case of B11, the koff [1] is reported as 2.1e-05 s⁻¹, the “Mean E max” value [2] is reported as 112% and the “Mean EC50” value [2] is reported as 0.111 nM.

B12: 16H7 variant with light chain substitution S94D (antibody, human IgG4 S228P, lambda, V domains shown)
VH: not shown
VL: B1 VL with R93N, S94D
notes: IgG4 backbone was used
With B12 the koff [1] was 3.4e-05 s⁻¹, the “Mean E max” value [2] was 103% and the “Mean EC50” value [2] was 0.122 nM.

B13: 16H7 variant with light chain substitution V97T (antibody, human IgG4 S228P, lambda, V domains shown)
VH: not shown
VL: B1 VL with R93N, V97T
notes: IgG4 backbone was used
With B13 the koff [1] was 0.0001 s⁻¹, the “Mean E max” value [2] was 99% and the “Mean EC50” value [2] was 0.142 nM.

B14: 16H7 variant with light chain substitution V98C (antibody, human IgG4 S228P, lambda, V domains shown)
VH: not shown
VL: B1 VL with R93N, V98C
notes: IgG4 backbone was used
For B14, the koff [1] was 6.4e-05 s⁻¹, the “Mean E max” value [2] was 100% and the “Mean EC50” value [2] was 0.105 nM.

B15: 16H7 variant with light chain substitution V98M (antibody, human IgG4 S228P, lambda, V domains shown)
VH: not shown
VL: B1 VL with R93N, V98M
notes: IgG4 backbone was used
B15 was tested, and the koff [1] was 7.2e-05 s⁻¹, the “Mean E max” value [2] was 108% and the “Mean EC50” value [2] was 0.114 nM.

B16: 16H7 variant with light chain substitution N93V (antibody, human IgG4 S228P, lambda, V domains shown)
VH: not shown
VL: B1 VL with R93V
notes: IgG4 backbone was used
B16 was tested, and the koff [1] was 4e-05 s⁻¹, the “Mean E max” value [2] was 108% and the “Mean EC50” value [2] was 0.139 nM.

B17: 16H7 variant with light chain substitution V97C (antibody, human IgG4 S228P, lambda, V domains shown)
VH: not shown
VL: B1 VL with R93N, V97C
notes: IgG4 backbone was used
For B17, the koff [1] was 0.00023 s⁻¹, the “Mean E max” value [2] was 104% and the “Mean EC50” value [2] was 0.19 nM.

B18: 16H7 variant with light chain substitution S94A (antibody, human IgG4 S228P, lambda, V domains shown)
VH: not shown
VL: B1 VL with R93N, S94A
notes: IgG4 backbone was used
In the case of B18, the koff [1] is reported as 4.6e-05 s⁻¹, the “Mean E max” value [2] is reported as 99% and the “Mean EC50” value [2] is reported as 0.107 nM.

B19: 16H7 variant with light chain substitution S94I (antibody, human IgG4 S228P, lambda, V domains shown)
VH: not shown
VL: B1 VL with R93N, S94I
notes: IgG4 backbone was used
B19 was tested, and the koff [1] was 4.3e-05 s⁻¹, the “Mean E max” value [2] was 106% and the “Mean EC50” value [2] was 0.126 nM.

B20: 16H7 variant with light chain substitution V97F (antibody, human IgG4 S228P, lambda, V domains shown)
VH: not shown
VL: B1 VL with R93N, V97F
notes: IgG4 backbone was used
In the case of B20, the koff [1] is reported as 2.1e-05 s⁻¹, the “Mean E max” value [2] is reported as 45% and the “Mean EC50” value [2] is reported as 3.02 nM.

B21: 16H7 variant with light chain substitution V97N (antibody, human IgG4 S228P, lambda, V domains shown)
VH: not shown
VL: B1 VL with R93N, V97N
notes: IgG4 backbone was used
B21 was tested, and the koff [1] was 0.00033 s⁻¹, the “Mean E max” value [2] was 95% and the “Mean EC50” value [2] was 0.206 nM.

B22: 16H7 variant with light chain substitution S94Y (antibody, human IgG4 S228P, lambda, V domains shown)
VH: not shown
VL: B1 VL with R93N, S94Y
notes: IgG4 backbone was used
For B22, the koff [1] was 6.2e-05 s⁻¹, the “Mean E max” value [2] was 100% and the “Mean EC50” value [2] was 0.098 nM.

B23: 16H7 variant with light chain substitution S94R (antibody, human IgG4 S228P, lambda, V domains shown)
VH: not shown
VL: B1 VL with R93N, S94R
notes: IgG4 backbone was used
In the case of B23, the koff [1] is reported as 5.7e-05 s⁻¹, the “Mean E max” value [2] is reported as 104% and the “Mean EC50” value [2] is reported as 0.123 nM.

B24: 16H7 variant with light chain substitution V97M (antibody, human IgG4 S228P, lambda, V domains shown)
VH: not shown
VL: B1 VL with R93N, V97M
notes: IgG4 backbone was used
With B24 the koff [1] was 3.3e-05 s⁻¹, the “Mean E max” value [2] was 103% and the “Mean EC50” value [2] was 0.214 nM.

B25: 16H7 variant with light chain substitution S94F (antibody, human IgG4 S228P, lambda, V domains shown)
VH: not shown
VL: B1 VL with R93N, S94F
notes: IgG4 backbone was used
In the case of B25, the koff [1] is reported as 1e-07 s⁻¹, the “Mean E max” value [2] is reported as 100% and the “Mean EC50” value [2] is reported as 0.132 nM.

B26: 16H7 variant with light chain substitution S94C (antibody, human IgG4 S228P, lambda, V domains shown)
VH: not shown
VL: B1 VL with R93N, S94C
notes: IgG4 backbone was used
With B26 the koff [1] was 1e-07 s⁻¹, the “Mean E max” value [2] was 99% and the “Mean EC50” value [2] was 0.138 nM.

B27: 16H7 variant with light chain substitution N93T (antibody, human IgG4 S228P, lambda, V domains shown)
VH: not shown
VL: B1 VL with R93T
notes: IgG4 backbone was used
With B27 the koff [1] was 3.1e-05 s⁻¹, the “Mean E max” value [2] was 103% and the “Mean EC50” value [2] was 0.161 nM.

B28: 16H7 variant with light chain substitution S94W (antibody, human IgG4 S228P, lambda, V domains shown)
VH: not shown
VL: B1 VL with R93N, S94W
notes: IgG4 backbone was used
With B28 the koff [1] was 4.3e-05 s⁻¹, the “Mean E max” value [2] was 103% and the “Mean EC50” value [2] was 0.159 nM.

B29: 16H7 variant with light chain substitution V98F (antibody, human IgG4 S228P, lambda, V domains shown)
VH: not shown
VL: B1 VL with R93N, V98F
notes: IgG4 backbone was used
In the case of B29, the koff [1] is reported as 1.6e-05 s⁻¹, the “Mean E max” value [2] is reported as 102% and the “Mean EC50” value [2] is reported as 0.161 nM.

B30: 16H7 variant with light chain substitution S94N (antibody, human IgG4 S228P, lambda, V domains shown)
VH: not shown
VL: B1 VL with R93N, S94N
notes: IgG4 backbone was used
With B30 the koff [1] was 3.3e-05 s⁻¹, the “Mean E max” value [2] was 103% and the “Mean EC50” value [2] was 0.133 nM.

B31: 16H7 variant with light chain substitution S94L (antibody, human IgG4 S228P, lambda, V domains shown)
VH: not shown
VL: B1 VL with R93N, S94L
notes: IgG4 backbone was used
In the case of B31, the koff [1] is reported as 4.4e-05 s⁻¹, the “Mean E max” value [2] is reported as 103% and the “Mean EC50” value [2] is reported as 0.169 nM.

B32: 16H7 variant with light chain substitution S94E (antibody, human IgG4 S228P, lambda, V domains shown)
VH: not shown
VL: B1 VL with R93N, S94E
notes: IgG4 backbone was used
For B32, the koff [1] was 1.4e-05 s⁻¹, the “Mean E max” value [2] was 100% and the “Mean EC50” value [2] was 0.122 nM.

B33: 16H7 variant with light chain substitution N93Y (antibody, human IgG4 S228P, lambda, V domains shown)
VH: not shown
VL: B1 VL with R93Y
notes: IgG4 backbone was used
In the case of B33, the koff [1] is reported as 6.5e-05 s⁻¹, the “Mean E max” value [2] is reported as 105% and the “Mean EC50” value [2] is reported as 0.108 nM.
